The target in test [1] is SEL1L S658P (mouse knock-in) (mouse (endogenous in MEFs and P0 liver)) (UniProt Q9Z2G6). Put plainly: co-IP; IP of endogenous SEL1L from P0 mouse liver lysates (WT, Sel1L^S658P, Sel1L^L709P); same lysis buffer; DERL2 eluted with 0.1 M glycine pH 2.5; immunoblot with quantification.
Test [2] has the same target. Description: co-IP; IP of endogenous SEL1L (1 ug anti-SEL1L, Protein A agarose, overnight 4 C) from MEF lysates (WT, Sel1L^S658P, Sel1L^L709P, Sel1L^P699T, Sel1L^ERCre KO); 150 mM NaCl, 25 mM Tris-HCl pH 7.5, 0.2% NP-40, 0.1% Triton X-100; immunoblot, prey band normalised to bait.
Test [3] has as its target HRD1 (mouse) (mouse (endogenous in MEFs and P0 liver)) (UniProt Q9DBY1). Put plainly: co-IP; reciprocal IP of endogenous HRD1 (anti-HRD1, Protein A agarose) from MEF lysates; same lysis buffer; immunoblot.

In test [1], “HRD1 (mouse) (from UniProt Q9DBY1 1-612) (enzyme)” came in with a reduction of HRD1 association against WT of 80%. In addition, the reduction of HRD1 binding against WT in test [2] came out at 60%.

As to “SEL1L S658P (mouse knock-in) (from UniProt Q9Z2G6 22-790) (natural protein)”, the reduction of SEL1L–HRD1 binding against WT in test [3] was determined as 60%.

B1: DERL2 (mouse) (natural protein)
chain: MAYQSLRLEYLQIPPVSRAYTTACVLTTAAVQLELITPFQLYFNPELIFKHFQIWRLITNFLFFGPVGFNFLFNMIFLYRYCRMLEEGSFRGRTADFVFMFLFGGFLMTLFGLFVSLVFLGQAFTIMLVYVWSRRNPYVRMNFFGLLNFQAPFLPWVLMGFSLLLGNSIIVDLLGIAVGHIYFFLEDIFPNQPGGIRILKTPSILRTIFDTPDEDPNYNPLPEERPGGFAWGEGQRLGG
Turning to B1, the decrease of DERL2 interaction against WT in test [1] was 60%.

The values above are taken from publication PMC12891039.
